The target in experiment [1] is T1, His-tagged FcγRIIIa (V158) (human, UniProt P08637 17-208).
T1 construct: not shown: His tag
Put plainly: BLI (Octet QK384), His-tagged FcgRIIIa (V158) on anti-Penta-HIS tips, antibody 500 nM to 15.6 nM in solution, global 1:1 fit. The protocol:
(§1) All measurements were performed at 25° C. with agitation at 1000 rpm. […] Sensograms were referenced for buffer effects and then fitted using the Octet QK384 user software (Pall ForteBio, USA). Kinetic responses were subjected to a global fitting using a one site binding model to obtain values for association (Kₒₙ), dissociation (Koff) rate constants and the equilibrium dissociation constant (KD). Only curves that could be reliably fitted with the software (R²>0.90) were included in the analysis.
(In general: Biolayer interferometry detects binding as a change in optical thickness at a sensor tip.)

For experiment [2], the target named is T2, His-tagged human HER3 (human, UniProt P21860 20-643).
T2 construct: Antigen of the BLI experiments and of the HER2-Fc dimerisation ELISA; also called HER3 His; not shown: His tag
Kind of experiment: BLI (Octet QK384), antibody on anti-human IgG capture tips, His-tagged human HER3 in solution, global one-site fit. The method in brief:
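Anti-HER3 IgG1 antibodies (25 nM) were captured on anti-human IgG sensor tips and binding to human HER3 was measured at 25° C with agitation at 1000 rpm.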

Experiment [3] has as its target T2, His-tagged human HER3. Put plainly: BLI (Octet QK384), antibody on anti-human IgG capture tips, His-tagged human HER3 35-278 nM, global 1:1 fit. The protocol: as §1, with “The anti-HER3 antibody clones in IgG1 format were analysed for binding affinity to human HER3. Bio-Layer Interferometry (BLI) experiments were performed using the Octet QK384 system (ForteBio). anti-Human IgG Capture (AHC) Octet sensor tips (Pall ForteBio, USA) were used to anti-HER3 antibodies (25 nM). All” for “All”

Experiment [4] has as its target T2, His-tagged human HER3. Put plainly: BLI (Octet QK384), antibody on anti-human IgG capture tips, His-tagged human HER3 in solution, global 1:1 fit, R^2 = 0.9955, kon Error 5.62E+03; Response -0.0012 / 0.1507 / 0.3396 / 0.4384 at 35 / 69 / 139 / 278 nM. The protocol:
as §1, with “The anti-HER3 antibody clones in IgG1 format were analysed for binding affinity to human HER3. Bio-Layer Interferometry (BLI) experiments were performed using the Octet QK384 system (ForteBio). anti-Human IgG Capture (AHC) Octet sensor tips (Pall ForteBio, USA) were used to anti-HER3 antibodies (25 nM). All” for “All”

Experiment [5] addresses T2, His-tagged human HER3. Kind of experiment: BLI (Octet QK384), antibody on anti-human IgG capture tips, His-tagged human HER3 35-278 nM, global 1:1 fit; kdis Error 1.17E-04. On the procedure: as §1, with “The anti-HER3 antibody clones in IgG1 format were analysed for binding affinity to human HER3. Bio-Layer Interferometry (BLI) experiments were performed using the Octet QK384 system (ForteBio). anti-Human IgG Capture (AHC) Octet sensor tips (Pall ForteBio, USA) were used to anti-HER3 antibodies (25 nM). All” for “All”

Experiment [6] addresses T2, His-tagged human HER3. Kind of experiment: BLI (Octet QK384), antibody on anti-human IgG capture tips, His-tagged human HER3 in solution, global 1:1 fit, R^2 = 0.9949, kon Error 6.34E+03; Response 0.0096 / 0.1318 / 0.3036 / 0.3995 at 35 / 69 / 139 / 278 nM. The protocol: as §1, with “The anti-HER3 antibody clones in IgG1 format were analysed for binding affinity to human HER3. Bio-Layer Interferometry (BLI) experiments were performed using the Octet QK384 system (ForteBio). anti-Human IgG Capture (AHC) Octet sensor tips (Pall ForteBio, USA) were used to anti-HER3 antibodies (25 nM). All” for “All”

Experiment [7] addresses T2, His-tagged human HER3. Kind of experiment: BLI (Octet QK384), antibody on anti-human IgG capture tips, His-tagged human HER3 35-278 nM, global 1:1 fit; kdis Error 1.27E-04. On the procedure: as §1, with “The anti-HER3 antibody clones in IgG1 format were analysed for binding affinity to human HER3. Bio-Layer Interferometry (BLI) experiments were performed using the Octet QK384 system (ForteBio). anti-Human IgG Capture (AHC) Octet sensor tips (Pall ForteBio, USA) were used to anti-HER3 antibodies (25 nM). All” for “All”

The target of experiment [8] is T2, His-tagged human HER3. Kind of experiment: BLI (Octet QK384), antibody on anti-human IgG capture tips, His-tagged human HER3 in solution, global 1:1 fit, R^2 = 0.9957, kon Error 3.75E+03; Response 0.0006 / 0.0697 / 0.1929 / 0.3524 at 35 / 69 / 139 / 278 nM. The protocol:
as §1, with “The anti-HER3 antibody clones in IgG1 format were analysed for binding affinity to human HER3. Bio-Layer Interferometry (BLI) experiments were performed using the Octet QK384 system (ForteBio). anti-Human IgG Capture (AHC) Octet sensor tips (Pall ForteBio, USA) were used to anti-HER3 antibodies (25 nM). All” for “All”

Where a chain is given by its changes, count along the chain named.

B1: 10D1 comprising GASDALIE and LCKC substitutions in CH2 region (antibody, human IgG1, kappa)
heavy: DVQLQESGPDLVKPSQSLSLTCTVTGYSITSGYSWHWIRQFPGNKLEWMGSIHYSGGTNYNPSLKSRISITRDTSKNQFFLQLNSVTTEDTATYFCARMTTAPRYPFDYWGQGTTLTVSSASTKGPSVFPLAPSSKSTSGGTAALGCLVKDYFPEPVTVSWNSGALTSGVHTFPAVLQSSGLYSLSSVVTVPSSSLGTQTYICNVNHKPSNTKVDKKVEPKSCDKTHTCPPCPAPELLAGPDVFCFPPKPKDTLMISRTPEVTCVVVDVSHEDPEVKFNWYVDGVEVHNAKTKPREEQYNSTYRVVSVLTVLHQDWLNGKEYKCKVSNKALPLPEECTISKAKGQPREPQVYTLPPSRDELTKNQVSLTCLVKGFYPSDIAVEWESNGQPENNYKTTPPVLDSDGSFFLYSKLTVDKSRWQQGNVFSCSVMHEALHNHYTQKSLSLSPGK
light: DIVMTQSQKFMSTSVGDRVSVTCKASQIVGSNVAWYQQKPGQSPKPLIYSASYRYSGVPDRFTASGSGTDFTLTITNVQSEDLAEYFCQQYSSHPLTFGAGTKLELKRTVAAPSVFIFPPSDEQLKSGTASVVCLLNNFYPREAKVQWKVDNALQSGNSQESVTEQDSKDSTYSLSSTLTLSKADYEKHKVYACEVTHQGLSSPVTKSFNRGEC
notes: also called Fc engineered 10D1 variant
The Kd is the constant that tells how readily two partners part at equilibrium. Read a high Kd as lower affinity. In experiment [1], B1 gave a Kd of 34 nM.

B2: anti-HER3 clone 10D1_c75 IgG1 (antibody, V domains shown)
VH: DVQLQEWGAGLLKPSETLSLTCAVTGYSITSGYSWHWIRQFPGNGLEWIGSIHYSGGTNYNPTLKSRITISRDTSKNQFSLKLSSVTAADTAVYFCARMTTAPRYPFDYWGQGTLVTVSS
VL: DIVMTQSPSSLSASVGDLVTITCKASQIVGSNVAWYQMKPGKSPKPLIYSASYLYFGVPSRFSGSGSGTDFTLTISSLQPEDVAEYFCQQYSSHPLTFGPGTKVEIKR
notes: Humanised 10D1 variant, IgG1/kappa
For orientation: koff means the rate constant with which the complex falls apart. A lower koff goes with slow dissociation. In general, kon refers to the rate constant with which the complex forms. Low readings indicate slow association, high ones fast association. B2 displayed a Kd in the experiment with His-tagged human HER3 [2] of under 0.001 nM. The dissociation rate constant (koff) with His-tagged human HER3 [3] is under 1e-07 s⁻¹. For the same molecule, in the experiment with His-tagged human HER3 [4], the kon worked out at 163000 M⁻¹ s⁻¹.

B3: anti-HER3 clone 10D1_c77 IgG1 (antibody, V domains shown)
VH: B2 VH with T63S
VL: B2 VL with D1V, L18R, S31P, M38Q, L54G, F56S, G57D, S93T
notes: as for B2
For the molecule B3, the equilibrium dissociation constant (Kd) with His-tagged human HER3 [2] amounted to 1.93 nM. The koff with His-tagged human HER3 [5] came out at 0.000346 s⁻¹. This molecule also came in with a kon with His-tagged human HER3 [6] of 179000 M⁻¹ s⁻¹.

B4: anti-HER3 clone 10D1_c85o1 IgG1 (antibody, V domains shown)
VH: B2 VH with N44K, H53R, T63S, S84G, M99E
VL: B2 VL with L18R, M38Q, S52R, L54Q, F56S, S60F, E85T, F87Y
notes: Humanised 10D1 variant, IgG1/kappa; also called 10D1_c8501
Turning to B4, the Kd with His-tagged human HER3 [2] amounted to 18.2 nM. This molecule gave a koff with His-tagged human HER3 [7] of 0.0017 s⁻¹. Moreover, the kon in the experiment with His-tagged human HER3 [8] was found to be 93600 M⁻¹ s⁻¹.

These data come from patent publication US20250122303A1 (HUMMINGBIRD BIOSCIENCE PTE, published 2025).
